Patent US20200231630A1

Tests used:
[1] = target: rsH14WIv1 monomeric HA1 head; assay: BLI, Fab and monomeric HA head
[2] = target: H1 A/Solomon Islands/3/2006 hemagglutinin, monomeric HA1 head (Influenza A virus H1N1 A/Solomon Islands/3/2006) (UniProt B4URD6); assay: BLI, Fab on Ni-NTA sensor, monomeric HA head in solution
[3] = target: H14N6 A/mallard/Wisconsin/10OS3941/2010 hemagglutinin, monomeric HA1 head (Influenza A virus H14N6 A/mallard/Wisconsin/10OS3941/2010); assay: as above
[4] = target: H4N6 A/America black duck/New Brunswick/00464/2010 hemagglutinin, monomeric HA1 head (Influenza A virus H4N6 A/America black duck/New Brunswick/00464/2010); assay: as above
[5] = target: rsH14WIv1 monomeric HA1 head; assay: as above
[6] = target: rsH14WIv2 monomeric HA1 head; assay: as above
[7] = target: rsH4NBv1 monomeric HA1 head; assay: as above
[8] = target: rsH4NBv3 monomeric HA1 head; assay: as above
[9] = target: rsH14WIv2 monomeric HA1 head; assay: BLI, Fab and monomeric HA head

Substance	fold KD greater than wildtype H1 SI-06 [1] [fold]	Kd [2] [µM]	Kd [3] [µM]	Kd [4] [µM]	Kd [5] [µM]	Kd [6] [µM]	Kd [7] [µM]	Kd [8] [µM]	fold tighter binding than wildtype H1 SI-06 [9] [fold]
CH67 Fab	17	0.57	> 100	> 100	9.5	0.31	> 100	1.6	–
C05 Fab	1.3	1.1	> 100	> 100	1.4	0.065	> 100	0.34	> 10
